Data taken from the DeepSol protein solubility set.

test: soluble on expression in E. coli; label from the status in PepcDB or PDB records

| Sequence | soluble on expression in E. coli |
| --- | --- |
| MTSSSSPSQDTKRLAQTYPEGLRADALMEEDVAWNRGNDSQWDGEQFDRSDRAALRRVAGLSTELEDVTEVEYRQLRLERVVLVGVWTSGTVQDAENSLAELAALAETAGALVLDGVVQRRDKPDAATYIGSGKAEELRDVVLHTGADTVICDGELSPGQLIHLEDVVKVKVIDRTALILDIFAQHAKSREGKAQVALAQMQYMLPRLRGWGQSLSRQMGGGKGGGLATRGPGETKIETDRRRIREKMAKMRREIAEMKTGREIKRQERKRHKVPSVAIAGYTNAGKSSLLNRLTGAGVLVENALFATLDPTVRRAETPSGRLYTLADTVGFVRHLPHHLVEAFRSTMEEVGDSDLILHVVDGSHPVPEEQLAAVREVIRDVGATDVPEIVVINKADMADPLVLQRLLRIEKRAIAVSARTGQNIDQLLALIDNELPRPSVEIEALVPYTHGKLVARAHDEGEVISEEHTPEGTLLKVRVHEELAAELAPYVPAPLALEHHHHHH | not soluble |
| MGSDKIHHHHHHMGNILWVASYPKSGNTWVRAFLENYIQNQAQPIDINTMHTISTAESAAHRYQHYLPKDKTATTELTLEEVSVLRPQVQADIAHQANGTTFVKTHNYLGEYNGHPLHNSSVTSGAIYVVRNPLDVAISMANYFGYSIDEAIAYMAEEMTGTPNEAPHVPQIITSWSMHVSSWTADDASKLILRYEDMLDDPKKVFRKVESFLGLKKDPVRLKNAIKHSSFAQLKAQETKLGFVEKHENANAFFRNGGKHQWKTKLTPEQVQKIVATHYEQMKRFKYLPAGM | not soluble |
| MINSPRVCIQVQSVYIEAQSSPDNERYVFAYTVTIRNLGRAPVQLLGRYWLITNGNGRETEVQGEGVVGVQPLIAPGEEYQYTSGAIIETPLGTMQGHYEMIDENGVPFSIDIPVFRLAVPTLIH | soluble |
| DYSQKLQNLISEQLVGCGFNEILNNSLTAASYYEGSETYKNENLVYLMNPLSNDLNVMRQTLLFGGLESIQHNANRKNADLKFFEFGNCYFYNAEKKNPEKVLAAYAEEYHLGLWVTGKRVSNSWAHPDENSSVYELKAYVLNIFTRLGLNFGNVVFGNLTNDIYSTAISVHTRGGKLLATFGIISKKIQKAFDIDNEVYYAEINWKELM | not soluble |
| LKKKVKRTCSNCLKGTAININNDILCIEKGIVSSDYVCSKHRFMPSFSSIKRKIHTCIDCEHFIIFDTSNVEDRAFGICELFTVRKYDGKNKKVCSKFVKRVKKEVC | not soluble |
| RPSSVVIGTASQGGVYYIYGGGLAQLLDRELGVSSNVEVTGGPVHNMQLVNEQEQDIGMITMGPGYEGVLGEGEWTGGETYDNVRVIFPMYTTPFHWWSLESSGVTSIEDMDGMRVGVGPSGGTSGTYLPIIHEVLGLDITPVLAGANDMVSQQLDGQLDVIGFAAGLPIPAVAEVEAQRDIHLFGIDGENRDKVLEALPYFEPYTIPADTYDQLDEDLETIAMFNFGITYSEMNADFVYELVKAYHENNDLLMTTHSSAEEAVPEAILRNEVVPLHVGAIRYYEEIGIDLPESVYPAEWENE | not soluble |
| MGSDKIHHHHHHMFKETLRECMEGHTLAERKAEQVMDAIMKGEATASQIASLLTVLRFRGETVAEMTGFARAMRRHSIQIEHSFSQVVDTCGTGGDDVGTFNISTATALLVSALGVPVAKHGNRAVSSKSGSADVLEALQIPIQSSPEEATASLQKHNMCFMFAPLYHVAMKHAVAPRKEIGFRTIFNLLGPLTNPARAEHQLIGVYDRNFAEKMAETLRRLGTKHSLLVAGHGGLDELSITGPSTVFEVKGDAIDRYELIPEDVGLERGDLAQIQVSTVQESATLIDQVLIGKANKSAQQIVLLNAGAALYAADRVDSIKAGVALAKEGIASGHVADHVRNLRQTDQEAEQHA | not soluble |
| MSLAQLGRFWHISDLHLDPNYTVSKDPLQVCPSAGSQPVLNAGPWGDYLCDSPWALINSSLYAMKEIEPKPDFILWTGDDTPHVPNESLGEAAVLAIVERLTNLIKEVFPDTKVYAALGNHDFHPKNQFPAQSNRIYNQVAELWRPWLSNESYALFKRGAFYSEKLPGPSRAGRVVVLNTNLYYSNNEQTAGMADPGEQFRWLGDVLSNASRDGEMVYVIGHVPPGFFEKTQNKAWFRESFNEEYLKVIQKHHRVIAGQFFGHHHTDSFRMFYDNTGAPINVMFLTPGVTPWKTTLPGVVDGANNPGIRIFEYDRATLNLKDLVTYFLNLRQANVQETPRWEQEYRLTEAYQVPDASVSSMHTALTRIASEPHILQRYYVYNSVSYNHLTCEDSCRIEHVCAIQHVAFNTYATCLHGLGAKLVPGEGHHHHHH | not soluble |
| MSLKNLHPIMLAGTGSDVGKSVIAAALCRIFKQDGYRPAPFKAQNMALNSYATPEGLEIGRAQAVQAEAAGVPCHTDMNPLLLKPSSDHTSQVVLNGRPIGNRNAFEYFRKEGREELRQEVNAAFDRLAARYNPIVMEGAGSISEINLRDTDLVNMPMACYADADVILVADIDRGGVFASVYGSVMLQTPEDKKRIKGVIINKFRGDIRLFESGVKMMEDLCGIPVLGIIPYYRNIHIEEEDSVGLDYKRMQAVEGKINIAVVLLRHLSNFTDFNRLERDERVHLYYTNNTEDLAKADIILLPGSKSTLDDLYELRRNGVAQAVLRAHREGVTVMGICGGYQLMGLEIHDPEGVEGEIRQLPGLGLLPVITTMQGEKVTRQVNFHFLENAETCQGYEIHMGETRPVPGEAVVPLNKLEDGGEDGCFVNQKCMGSYIHGILDNQAFIDYLLEPYAEKLEEGHHHHHH | not soluble |
| MFEWIKTFIAVYETKNFSTAAKQLYISQPTVSLQIKKLEQHFSIKLFYRNGKQSVIPTKEADFLYPKMLSIIESLTTSFAQAAEKENFKEDCIIASSNTVAIYLLPDIMESLVTAFPLINFSIQLMNSNEVVDMVQNNHAHIGLIEKPIETKNLHKEIVYEDQLVLAGDAASKFWLLREKNSGLRFFNELYLNEHSINLPIIELNNNEVLLQLLKNNIGQSIVSRLSISDEIPWQPIDQSFASRKIFIVQTDHHANTSFSEVYNRIVEKIRERQT | not soluble |
| MYQHDIGKRSAKVKNVVERGAVKKFAEAIGDPNPIYWDEETGKRSRYGRNIAPPTFPRVFDYGVIEGLKLPAKGLIHGEQHFHYERPLFVGEELYCYAEVKDYFEKQSSMGLLGFLVIANNGEDADGNLIFTSTSTIMINEAVRKAMSV | soluble |
| MGSDKIHHHHHHMLHKNDYRLGIDVGGTNTDAAILDADLRCIATAKFPTSMDIYSGIERVIAAVLAQSGIEPQHICYAMLGTTQCTNAIVERKGLDRVGLLRLSLPSSDSVPPLFGWDDEWQKTLGEHFYQLHGGYEFDGREIHPVLLNEVLAVCDTMRGHVDSVAICGVFSPVNNDQELQVAQWVNAALPDVSLSLSHRIGSTGLLERENATILNASLQSTANRFVNGFIQALVRHGIKATPFFGQNDGTLMSESMVKQYPILTMACGPTNSIRGACHLSGLDNALIIDVGGTTTDIGVLVNGFPRESAIAVEVGDVRTNFRMPDIISIGIGGGTCVRQSQNGTLTLGPDSVGYRLLEQSVSFGGETLTLNDIMLQLQRERWTSSLSHSLPELDKALCLEAYRQMIDKVESAIDRIKSSSAAIPAVLVGGGSILLPDVLSGVSQVMRPQNFDAANAVGVALGKVGAQIERVVKMSDNDREKIKSELQQQTICLAEETGAMPGSVEIIDYQEIPLAYLPGNAVQVKIKAAGNLA | not soluble |
| MAKLDFHIVKRIREQIANGGTRVALKHKVAGAWQGITWEQFGQQVDTLSLALLAQGLGVQDKIGIFSNNMPQWTIADFAALQLRGVTVPIYPTNTAAQSAYIIDNADVKVLFVGEQPQFDAAVSIFEQCEQLELIVAMSDDIELGDHDFAISWKDFVAKGDTSHQAELDERLEQAKVDDLLTLIYTSGTTGQPKGVMLDYGNIAAQLEGHDQRLSLSQDDVSLCFLPLSHVFERAWTFYVLYKGATNCYLQDTMQVRDALSEVRPTVMCAVPRFYEKIFSAIHEKVSRAPIHRKIMFTWAVNMGAKMALCHQEKRKPSMMLRKAHA | not soluble |
| MDLWKLYQPGTPAAIVAWGQLGTAHAKTTYGLLRHSRLFKPVCVVAEHEGKMASDFVKPVRYDVPVVSSVEKAKEMGAEVLIIGVSNPGGYLEEQIATLVKKALSLGMDVISGLHFKISQQTEFLKIAHENGTRIIDIRIPPLELDVLRGGIYRKKIKVVGVFGTDCVVGKRTTAVQLWERALEKGIKAGFLATGQTGILIGADAGYVIDAVPADFVSGVVEKAVLKLEKTGKEIVFVEGQGALRHPAYGQVTLGLLYGSNPDVVFLVHDPSRDHFESFPEIPKKPDFEEERRLIETLSNAKVIGGVSLNGGFETDLPVYDPFNTDDLDEMLERAMVW | not soluble |
| MGFHPRVPEGEVARRIAAVGAAIDRVIGERKRKISGQMIGRAVIRERRRCVWLERSEVPLDVIREGEAFVVRFANPDGSLGQPHQLLSSWMPGDPVLEHHHHHH | not soluble |
| MGHHHHHHSHMVNVKGSTKKSNLDRFLHCITPLVPPQSLPKTEIRTLNRLWHPWERQKVEFFRLSDLWDCYDEWSAYGASVPIHVTNGESLVQYYVPYLSAIQIFTSHSSLIRLREESEDGECEGRDPFSDSGSDESVSEEGLENNTLLHPSDRLGYLYLQYFERSAPYTRVPLMDKINELAQRYPGLMSLRSVDLSPASWMSVAWYPIYHIPMGRTIKDLSTCFLTYHTLSSSFQDMEPEENGGDKERVRREGEDITLLPFGMATYKMQGDVWLSQDHDDQERLASLYSVADSWLKQLRVQHHDFNYFCNMSMTHRG | soluble |
| MSLKNYQSSDPFKEARVSSGCAHMNDQDDPVTMILRLKDVRKTAHNWKTFQSGAAPGRIVIPSEVNIRDTRQIPFEVDPPLHGAFRSLLDPWFKRPLKAQYQETLAQQVNALVDDVLKADSIDVVEDFALCLQSRALTLLLNTDADEADTWIGWGTHVFRSEDDPLDGDKAAILYDYIDEKIKASSPNPEGDLYSVLLAAEVEGKKLTHEEIKGIMILTFAGGRDTVINAVTNTVSYFAQHPESLARLRNEPEIIGRAIEELIRYFTPLTQMGRVVTQDTQVCEHAIKADSRVSLCWASANRDESVFESPNDVILDRKLNPHVSFGFSHHNCLGATHARQIMRVLIETLMAKVGSIDIIDFEENIEYLGEFERKVGFHKLHVNIHPREGHHHHHH | soluble |
| MGSDKIHHHHHHMANMKNSNDRIILFRKAGEKVDATKMLFLTEYGLSHEADTDTEDTMDGSYNTGGSVESTMSGTAKMFYGDDFADEIEDAVVDRVLYEAWEVESRIPGKNGDATKFKAKYFQGFHNKFELKAEANGIDEYEYEYGVNGRFQRGFATLPEAVTKKLKATGYRFHDTTKADALTGEDLTAIPQPKVDSSTVTPGEV | not soluble |
| MSLSKIIFPGFIDLHNHFPQTQVIASYGTKLLEWLNKYTFPNESLFVDDKHCERESKIFLDLLNHNGITTSVSFGSVHPNSVEYLFQEAHRRNMCVIAGNVLMDRNAPDTVLEKADKSYLSSKEIISKWHNVSRCKYAITPRFAITSTPELMEVSQTLCAENQSCYVQTHLSENIDEIETTLELFPDQKDYLSIYDKYKLLSNKTLLAHSIHLEMSEIERMKETKSIAVHCPTSNLFLGSGLFKFKELEEKGVRTAIATDVGGGTSFSMLRTLDEAYKVQQLGNYSLNPLASYFWSTMEGHHHHHH | soluble |
| MGHHHHHHSHMDNAVDRHVFYISDGTAITAEVLGHAVMSQFPVTISSITLPFVENESRARAVKDQIDAIYHQTGVRPLVFYSIVLPEIRAIILQSEGFCQDIVQALVAPLQQEMKLDPTPIAHRTHGLNPNNLNKYDARIAAIDYTLAHDDGISLRNLDQAQVILLGVSRCGKTPTSLYLAMQFGIRAANYPFIADDMDNLVLPASLKPLQHKLFGLTIDPERLAAIREERRENSRYASLRQCRMEVAEVEALYRKNQIPWINSTNYSVEEIATKILDIMGLSRRMY | not soluble |
